Series [1] deals with T1, IL-23 (mouse, p19/p40 heterodimer) (Mus musculus, UniProt Q9EQ14;P43432 SEQ:22-196,SEQ:23-335).
T1 sequence 1: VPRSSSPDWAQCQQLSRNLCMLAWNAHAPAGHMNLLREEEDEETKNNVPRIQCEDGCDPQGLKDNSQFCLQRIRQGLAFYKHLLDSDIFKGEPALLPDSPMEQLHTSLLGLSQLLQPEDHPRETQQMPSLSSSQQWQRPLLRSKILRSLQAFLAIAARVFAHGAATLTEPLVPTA
T1 sequence 2: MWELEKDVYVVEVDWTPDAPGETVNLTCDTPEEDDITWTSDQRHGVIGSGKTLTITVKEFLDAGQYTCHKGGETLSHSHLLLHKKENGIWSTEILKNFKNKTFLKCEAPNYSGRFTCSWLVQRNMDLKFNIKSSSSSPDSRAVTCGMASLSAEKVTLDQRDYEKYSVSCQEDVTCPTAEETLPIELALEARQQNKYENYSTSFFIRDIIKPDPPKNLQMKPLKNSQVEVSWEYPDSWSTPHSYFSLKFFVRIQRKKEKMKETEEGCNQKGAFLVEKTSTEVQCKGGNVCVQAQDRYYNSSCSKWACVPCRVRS
In words: filter; 1X PBS, 0.1 mg/mL BSA, 30 min RT; inactive in TransAM cell assay. Conditions: tags: isolated in-house; label: 32P. From the text:
Based on visual inspection of the parent clone sequences of the mouse IL-23 rRfY aptamers described in Example 1E, and predicted RNA structures using an RNA folding program (RNAstructure), minimized constructs were designed for each of the seven binding mIL-23 clones. PCR templates for the minimized construct oligos were ordered from Integrated DNA Technologies (Coraville, Iowa). Constructs were PCR amplified, transcribed, gel purified, and tested for binding to mIL-23 using the dot blot binding assay previously described. Trace ³²P-labeled RNA was combined with mIL-23 and incubated at room temperature for 30 min in 1×PBS plus 0.1 mg/mL BSA for a final volume of 30 μL. The reaction was added to a dot blot apparatus (Schleicher and Schuell Minifold-1 Dot Blot, Acrylic). Binding curves were generated as described in previous sections. Table 33 summarizes the protein binding characterization for each rRfY minimized construct that had significant binding to mIL-23.

Series [2] deals with T2, IL-23 (human, p19/p40 heterodimer) (Homo sapiens, UniProt Q9NPF7;P29460 SEQ:20-189,SEQ:23-328). In words: filter; 1X PBS, tRNA, ssDNA, BSA, 30 min RT. Conditions: tags: R&D Systems, carrier free; label: 5'-32P. From the text:
Following the dRmY selection process for aptamers binding to IL-23 (described in Example 1C above) and determination of the oligonucleotide sequences, the sequences were systematically minimized to obtain shorter oligonucleotide sequences that retain the binding characteristics. On the basis of the IL-23 binding analysis described in Example 1A above and the cell based assay data described in Example 3 below, ARC489 (SEQ ID NO 91) (74mer) was chosen for further characterization. 3 minimized constructs based on clone ARC489 (SEQ ID NO 91) were designed and generated. […] Table 23 includes the binding data for the dRmY minimized aptamers.

Series [3] addresses T2, IL-23 (human, p19/p40 heterodimer). In words: filter; direct binding without tRNA. Conditions: tags: R&D Systems, carrier free; label: 5'-32P. As to the method:
(§1) These molecules were gel purified and assayed for IL-23 binding using the dot blot assay as described above and compared to each other and to the parent molecule, ARC979. An 8 point IL-23 titration (0 nM to 300 nM, 3 fold serial dilutions) was used in the binding assay.

Series [4] shares this target. The series is described as follows: filter; direct binding without tRNA; competition Kd 5 nM. Particulars: tags: R&D Systems, carrier free; label: 5'-32P. As to the method:
as §1

The target is the same in series [5]. In words: competition; 1X PBS, 0.1 mg/mL BSA; direct Kd 93 nM with tRNA, 90 nM without. Particulars: tags: R&D Systems, carrier free; label: 5'-32P; G4. On the procedure: (§2) The fraction aptamer bound vs. [IL-23] was used to calculate the KD by fitting the following equation to the data: Fraction aptamer bound=amplitude*([IL-23]/(KD+[IL-23]))+background binding.
(§3) Several of the minimized constructs from the dRmY Selection 2 were also assayed in a competition format in which cold aptamer was titrated and competed away trace ³²P ATP labeled aptamer In the competition assay, the [IL-23] was held constant, the [trace labeled aptamer] was held constant, and the [unlabeled aptamer] was varied. The KD was calculated by fitting the following equation to the data: Fraction aptamer bound=amplitude*([aptamer]/(KD+[aptamer]))+background binding.

The target is the same in series [6]. The series is described as follows: SPR; Biacore, IL-23 immobilized on CM3; HBS-P, 25 C. Conditions: tags: R&D Systems, carrier free. As to the method:
All biosensor binding measurements were performed at 25° C. using a BIACORE 2000 equipped with a research-grade CM3 biosensor chip (BIACORE Inc. Piscataway, N.J.). Purified recombinant human IL-23 (R&D Systems, Minnapolis, Minn.) was immobilized to the biosensor surface using amino-coupling chemistry. To achieve this, the surfaces of two flow cells were first activated for 7 minutes with a 1:1 mixture of 0.1 M NHS (Nhydroxysuccinimide) and 0.4 M EDC (3-(N,Ndimethylamine) propyl-N-ethylcarbodiimide) at a flow rate of 5 μl/min. After surface activation, one flow cell was injected with 50 μg/ml of IL-23 at rate of 10 μl/minute for 15 minutes to allow for establishment of covalent bonds to the activated surface. Next, 1 M ethanolamine hydrochloride pH 8.5 was injected for 7 min at rate of 5 μl/min to inactivate residual esters. As a negative control, a blank flow cell was prepared by injecting 1 M ethanolamine hydrochloride pH 8.5 continuously for 7 minutes to inactivate residual esters, without protein injection.
For IL-23 binding, aptamers were serially diluted into HBS-P buffer (10 mM HEPES pH7.4, 150 mM NaCl, 0.005% Surfactant 20). […] Rate constant and dissociation constant were calculated using BIAevaluation software.

For series [7] the target is unchanged. The series is described as follows: filter; -tRNA; competition 6 nM. Particulars: tags: R&D Systems, carrier free. As to the method:
as §1

Series [8] shares this target. In words: competition; 1X PBS, 0.1 mg/mL BSA; direct binding Kd 40 nM with tRNA. Particulars: tags: R&D Systems, carrier free; label: 5'-32P; G4 (predicted). On the procedure:
as §2, §3

Series [9] has the same target. The series is described as follows: filter; no binding detectable. Particulars: tags: R&D Systems, carrier free; label: 32P.
Series [10] deals with IL-12 (human, p35/p40 heterodimer) (Homo sapiens, UniProt P29459;P29460 SEQ:57-253,SEQ:23-328). The series is described as follows: filter; no binding detectable. Particulars: label: 32P.
Chain of IL-12 (human, p35/p40 heterodimer) (P29459 23-219, chain 1 of 2): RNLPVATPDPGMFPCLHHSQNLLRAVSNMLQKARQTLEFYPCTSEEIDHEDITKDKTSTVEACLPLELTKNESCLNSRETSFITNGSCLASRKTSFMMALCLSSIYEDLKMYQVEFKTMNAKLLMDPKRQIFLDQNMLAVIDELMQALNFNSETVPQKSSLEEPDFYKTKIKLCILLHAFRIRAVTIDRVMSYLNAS
Chain of IL-12 (human, p35/p40 heterodimer) (P29460 23-328, chain 2 of 2): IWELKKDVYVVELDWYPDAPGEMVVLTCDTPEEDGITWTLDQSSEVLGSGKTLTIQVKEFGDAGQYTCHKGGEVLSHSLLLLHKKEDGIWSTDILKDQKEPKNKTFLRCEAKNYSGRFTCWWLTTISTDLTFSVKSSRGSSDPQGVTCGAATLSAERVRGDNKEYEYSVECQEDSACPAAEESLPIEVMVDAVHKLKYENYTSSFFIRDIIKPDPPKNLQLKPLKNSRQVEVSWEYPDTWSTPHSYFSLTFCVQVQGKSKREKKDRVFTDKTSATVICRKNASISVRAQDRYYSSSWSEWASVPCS
The target of series [11] is T2, IL-23 (human, p19/p40 heterodimer). The series is described as follows: filter; no binding; used as negative control. Conditions: tags: R&D Systems, carrier free; label: 5'-32P.
From the text: as §2
Table 25 below summarizes the minimized sequences and the parent clone from which they were derived, and Table 26 summarizes the binding characterization from direct binding assays (+/−tRNA) and competition binding assays for the minimized constructs tested.

Series [12] concerns the target T1, IL-23 (mouse, p19/p40 heterodimer). In words: filter; 1X PBS, 0.1 mg/mL BSA, 30 min RT. Conditions: tags: isolated in-house; label: 32P. On the procedure:
(§4) rRfY-mIL-23S/mIL-12 neg Protein Binding Analysis. The dot blot binding assays previously described were performed throughout the selection to monitor the protein binding affinity of the pool. Trace ³²P-labeled RNA was combined with mIL-23 or mIL-12 and incubated at room temperature for 30 min in 1×PBS plus 0.1 mg/mL BSA for a final volume of 30 μL. The reaction was added to a dot blot apparatus (Schleicher and Schuell Minifold-1 Dot Blot, Acrylic). Binding curves were generated as described in previous sections. When a significant level of binding of RNA in the presence of mIL-23 was observed, the pool was cloned using the TOPO TA cloning kit (Invitrogen, Carlsbad, Calif.) according to the manufacturer's instructions. The Round 9 pool template was cloned, and 10 individual clones from the selection were assayed in an 8-point dot blot titration against mIL-23. […] Four of the 10 total clones screened bound especially to mIL-23 and mIL-12 at varying affinities.

The target of series [13] is T3, IL-12 (mouse, p35/p40 heterodimer) (Mus musculus, UniProt P43431;P43432 SEQ:23-215,SEQ:23-335).
T3 sequence 1: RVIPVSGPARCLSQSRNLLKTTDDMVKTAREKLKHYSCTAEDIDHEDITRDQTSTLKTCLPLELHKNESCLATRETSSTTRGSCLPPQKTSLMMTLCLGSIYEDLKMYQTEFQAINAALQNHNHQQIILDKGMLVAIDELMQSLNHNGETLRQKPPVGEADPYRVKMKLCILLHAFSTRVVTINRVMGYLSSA
T3 sequence 2: T1 sequence 2
The series is described as follows: filter; 1X PBS, 0.1 mg/mL BSA, 30 min RT. Particulars: label: 32P. As to the method:
as §4

The target in series [14] is T2, IL-23 (human, p19/p40 heterodimer). The series is described as follows: filter; no binding in dot blot, but active in TransAM cell assay (p381). Particulars: tags: R&D Systems, carrier free; label: 5'-32P.

T2 sequence (Q9NPF7 20-189, chain 1 of 2): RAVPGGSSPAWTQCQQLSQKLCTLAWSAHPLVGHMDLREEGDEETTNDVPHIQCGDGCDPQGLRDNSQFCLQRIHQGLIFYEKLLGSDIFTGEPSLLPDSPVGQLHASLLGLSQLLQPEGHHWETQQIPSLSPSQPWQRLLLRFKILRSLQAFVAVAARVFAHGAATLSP
T2 sequence (P29460 23-328, chain 2 of 2): as the sequence (P29460 23-328, chain 2 of 2) above

B1: ARC1918 (ARC1632 minimer) (ssRNA)
RNA: GGAGCGCACUCAGCCACCGGCUUAAUAUCCAAUAGGAACGUUCGCUCU
modifications: 2'-F all C and U (rRfY)
Regarding B1, in [1], the Kd (in general, the equilibrium constant for the complex coming apart) turned out to be 1 nM.

B2: ARC527 (mixed)
RNA: ACAGCGCCGGUGGGCGGGCAUUGGGUGGAUGCGCUGU
modifications: 2'-deoxy A and G, 2'-OMe C and U (dRmY)
For B2, in series [2], the Kd came to 12.6 nM.

B3: ARC1154 (mixed)
RNA: ACAGGCAAGUAAUUGGGGAGUGCGGGCGGGGUGU
modifications: dRmY; PS between nt 9 and 10
B3 gave a Kd in series [3] of 412 nM.

B4: ARC1160 (mixed)
RNA: B3 RNA
modifications: dRmY; PS between nt 18 and 19 [N = PS linkage, not a base; PS between nt 18 and 19; 2'-deoxy all A/G; 2'-OMe all C/U (2,6,10,13,14,21,23,27,32,34)]
B4: the Kd in series [4] stood at 38 nM.

B5: ARC979 (mixed)
RNA: B3 RNA
modifications: 2'-deoxy A and G, 2'-OMe C and U (dRmY)
In turn, B5 returned a Kd in [5] of 9 nM.

B6: ARC1988 (mixed)
RNA: B3 RNA
modifications: ARC1623 with 5'-amine-linked 40 kDa PEG; 2'-deoxy, 2'-OMe, PS, 3'-idT
B6: the Kd in series [6] is about 2 nM.

B7: ARC1162 (mixed)
RNA: B3 RNA
modifications: deoxy A,G; 2'-OMe C,U; PS 20-21 [PS between 20-21; 2'-OMe C,U at 2,6,10,13,14,21,23,27,32,34; deoxy A,G at all other positions]
Turning to B7, in [7], the Kd was found to be 47 nM.

B8: ARC795 (mixed)
RNA: CGAUAUAGGCGGUACGGGGGGAGUGGGCUGGGGUCG
modifications: 2'-deoxy A and G, 2'-OMe C and U (dRmY)
For the molecule B8, in series [8], the Kd is 4 nM.

B9: ARC492 (mixed)
RNA: GGGAGAGGAGAGAACGUUCUACUCAAUGACCGCGCGAGGCUCUGGGAGAGGGCGCUGUCGAUCGAUCGAUCGAUG
modifications: 2'-deoxy A and G, 2'-OMe C and U (dRmY)
With B9, the binding result in series [9] and in series [10] was “no binding” throughout.

B10: ARC895 (mixed)
RNA: GGCAAGGUAAUUGGGUAGUGAGGGCUGGG
modifications: 2'-deoxy A and G, 2'-OMe C and U (dRmY)
With B10, the binding result in [11] is on record as “no binding”.

B11: AMX369.H1 (ARC1914) (ssRNA)
RNA: GGAGCGCACUCAGCCACCUGGGAAAAUCUGGGUCCCUGAGUUCUAACAGCAGAGAUUUUUCGACCUCUCUGCUAGC
modifications: 2'-F all C and U (rRfY)
For the molecule B11, the Kd came to 23 nM in series [12] and 194 nM in series [13].

B12: ARC982 (mixed)
RNA: GGCGGUUACGGGGGAUGCGGGUGGGACAGG
modifications: 2'-deoxy A and G, 2'-OMe C and U (dRmY)
As for B12, the binding result in series [14] is “no binding”.

Source of the values: patent US20060193821, “Aptamers to the human IL-12 cytokine family and their use as autoimmune disease therapeutics” (published 2006).
